Assay results taken from patent publication US11332512B2, “Peptides and combination of peptides for use in immunotherapy against various tumors” (Immatics Biotechnologies GmbH, priority 2015, dated 2022).

target: HLA-A*02:01 (Homo sapiens, UniProt P04439, D140Y/D185E/D98H/E176V/E277Q/G131W/G231S/I119V/I121R/I166T/I218V/L300P/L318F/N151K/N90K/P208A/P217A/Q86G/Q94H/R138H/R169H/T345S); experiment: MHC binding assay: UV-ligand exchange with beta2m ELISA (peptide exchange yield); settings: binding to HLA-A*02:01, β2m ELISA
Excerpt: Candidate peptides for T cell based therapies according to the present invention were further tested for their MHC binding capacity (affinity). The individual peptide-MHC complexes were produced by UV-ligand exchange, where a UV-sensitive peptide is cleaved upon UV-irradiation, and exchanged with the peptide of interest as analyzed. Only peptide candidates that can effectively bind and stabilize the peptide-receptive MHC molecules prevent dissociation of the MHC complexes. To determine the yield of the exchange reaction, an ELISA was performed based on the detection of the light chain (β2m) of stabilized MHC complexes. The assay was performed as generally described in Rodenko et al. (Rodenko et al., 2006).
96 well MAXISorp plates (NUNC) were coated over night with 2 ug/ml streptavidin in PBS at room temperature, washed 4× and blocked for 1 h at 37° C. in 2% BSA containing blocking buffer. Refolded HLA-A*02:01/MLA-001 monomers served as standards, covering the range of 15-500 ng/ml. Peptide-MHC monomers of the UV-exchange reaction were diluted 100 fold in blocking buffer. Samples were incubated for 1 h at 37° C., washed four times, incubated with 2 ug/ml HRP conjugated anti-β2m for 1 h at 37° C., washed again and detected with TMB solution that is stopped with […]. Absorption was measured at 450 nm. Candidate peptides that show a high exchange yield (preferably higher than 50%, most preferred higher than 75%) are generally preferred for a generation and production of antibodies or fragments thereof, and/or T cell receptors or fragments thereof, as they show sufficient avidity to the MHC molecules and prevent dissociation of the MHC complexes.

Row | Substance | Peptide exchange (MHC class I binding score, peptide exchange yield)
1 | 3 (RVIDDSLVVGV; listed as Homo sapiens) [compound 3] | +++ (= ≥50% = +++)
2 | 5 (GLVDIMVHL; listed as Homo sapiens) [compound 5] | +++ (= ≥50% = +++)
3 | 7 (ALLQALMEL; listed as Homo sapiens) [compound 7] | +++ (= ≥50% = +++)
4 | 10 (QLIEKNWLL; listed as Homo sapiens) [compound 10] | +++ (= ≥50% = +++)
5 | 11 (LLDPKTIFL; listed as Homo sapiens) [compound 11] | +++ (= ≥50% = +++)
6 | 12 (RLLDPKTIFL; listed as Homo sapiens) [compound 12] | +++ (= ≥50% = +++)
7 | 13 (RLHDENILL; listed as Homo sapiens) [compound 13] | +++ (= ≥50% = +++)
8 | 16 (SLADLSLLL; listed as Homo sapiens) [compound 16] | +++ (= ≥50% = +++)
9 | 21 (YLMDDFSSL; listed as Homo sapiens) [compound 21] | +++ (= ≥50% = +++)
10 | 22 (LMYPYIYHV; listed as Homo sapiens) [compound 22] | +++ (= ≥50% = +++)
11 | 23 (ALLSPLSLA; listed as Homo sapiens) [compound 23] | +++ (= ≥50% = +++)
12 | 24 (KVWSDVTPL; listed as Homo sapiens) [compound 24] | +++ (= ≥50% = +++)
13 | 25 (LLWGHPRVALA; listed as Homo sapiens) [compound 25] | +++ (= ≥50% = +++)
14 | 26 (VLDGKVAVV; listed as Homo sapiens) [compound 26] | +++ (= ≥50% = +++)
15 | 30 (IITEVITRL; listed as Homo sapiens) [compound 30] | +++ (= ≥50% = +++)
16 | 31 (GLLETTGLLAT; listed as Homo sapiens) [compound 31] | +++ (= ≥50% = +++)
17 | 36 (TVLQELINV; listed as Homo sapiens) [compound 36] | +++ (= ≥50% = +++)
18 | 40 (KIWEELSVLEV; listed as Homo sapiens) [compound 40] | +++ (= ≥50% = +++)
19 | 41 (IVTEIISEI; listed as Homo sapiens) [compound 41] | +++ (= ≥50% = +++)

Row | Substance | Peptide exchange (MHC class I binding score, peptide exchange yield)
20 | 44 (AVFNLVHVV; listed as Homo sapiens) [compound 44] | +++ (= ≥50% = +++)
21 | 45 (FLPVSVVYV; listed as Homo sapiens) [compound 45] | +++ (= ≥50% = +++)
22 | 47 (GLNGFNVLL; listed as Homo sapiens) [compound 47] | +++ (= ≥50% = +++)
23 | 48 (KISDFGLATV; listed as Homo sapiens) [compound 48] | +++ (= ≥50% = +++)
24 | 54 (YLVPGLVAA; listed as Homo sapiens) [compound 54] | +++ (= ≥50% = +++)
25 | 55 (HLFDKIIKI; listed as Homo sapiens) [compound 55] | +++ (= ≥50% = +++)
26 | 58 (HLLGEGAFAQV; listed as Homo sapiens) [compound 58] | +++ (= ≥50% = +++)
27 | 59 (ALADGIKSFLL; listed as Homo sapiens) [compound 59] | +++ (= ≥50% = +++)
28 | 60 (YLFSQGLQGL; listed as Homo sapiens) [compound 60] | +++ (= ≥50% = +++)
29 | 61 (ALYPKEITL; listed as Homo sapiens) [compound 61] | +++ (= ≥50% = +++)
30 | 62 (SLVENIHVL; listed as Homo sapiens) [compound 62] | +++ (= ≥50% = +++)
31 | 63 (KLLPMVIQL; listed as Homo sapiens) [compound 63] | +++ (= ≥50% = +++)
32 | 67 (FLIENLLAA; listed as Homo sapiens) [compound 67] | +++ (= ≥50% = +++)
33 | 68 (QLMNLIRSV; listed as Homo sapiens) [compound 68] | +++ (= ≥50% = +++)
34 | 75 (ALLDGALQL; listed as Homo sapiens) [compound 75] | +++ (= ≥50% = +++)
35 | 76 (FTAEFLEKV; listed as Homo sapiens) [compound 76] | +++ (= ≥50% = +++)
36 | 80 (VLTGQVHEL; listed as Homo sapiens) [compound 80] | +++ (= ≥50% = +++)
37 | 82 (ILAEEPIYIRV; listed as Homo sapiens) [compound 82] | +++ (= ≥50% = +++)
38 | 86 (SLFSNIESV; listed as Homo sapiens) [compound 86] | +++ (= ≥50% = +++)

Row | Substance | Peptide exchange (MHC class I binding score, peptide exchange yield)
39 | 87 (KLLSLLEEA; listed as Homo sapiens) [compound 87] | +++ (= ≥50% = +++)
40 | 88 (LLLPLELSLA; listed as Homo sapiens) [compound 88] | +++ (= ≥50% = +++)
41 | 94 (YLDEVAFML; listed as Homo sapiens) [compound 94] | +++ (= ≥50% = +++)
42 | 95 (KLIDEDEPLFL; listed as Homo sapiens) [compound 95] | +++ (= ≥50% = +++)
43 | 98 (FVQEKIPEL; listed as Homo sapiens) [compound 98] | +++ (= ≥50% = +++)
44 | 99 (TLFGIQLTEA; listed as Homo sapiens) [compound 99] | +++ (= ≥50% = +++)
45 | 100 (ALQSFEFRV; listed as Homo sapiens) [compound 100] | +++ (= ≥50% = +++)
46 | 108 (FIANLPPELKA; listed as Homo sapiens) [compound 108] | +++ (= ≥50% = +++)
47 | 109 (ILGSFELQL; listed as Homo sapiens) [compound 109] | +++ (= ≥50% = +++)
48 | 111 (AQLEGKLVSI; listed as Homo sapiens) [compound 111] | +++ (= ≥50% = +++)
49 | 112 (ILAQDVAQL; listed as Homo sapiens) [compound 112] | +++ (= ≥50% = +++)
50 | 122 (SIIDTELKV; listed as Homo sapiens) [compound 122] | +++ (= ≥50% = +++)
51 | 125 (AALEVLAEV; listed as Homo sapiens) [compound 125] | +++ (= ≥50% = +++)
52 | 126 (QLREAFEQL; listed as Homo sapiens) [compound 126] | +++ (= ≥50% = +++)
53 | 130 (QLYGSAITL; listed as Homo sapiens) [compound 130] | +++ (= ≥50% = +++)
54 | 131 (SLYPHFTLL; listed as Homo sapiens) [compound 131] | +++ (= ≥50% = +++)
55 | 132 (ALLNNVIEV; listed as Homo sapiens) [compound 132] | +++ (= ≥50% = +++)
56 | 136 (LLWDAPAKC; listed as Homo sapiens) [compound 136] | +++ (= ≥50% = +++)
